In the supplement of paper PMC12764529:
± gives the half width of the 95% confidence interval.

Legend:
[1] = folding stability dG unfold from trypsin proteolysis; higher = more stable
Outline: (§1)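 Unfolding free energy was derived, per protease or combined, against a sequence-predicted unfolded-state K50 and a shared folded-state K50, starting from K50 inferred by Bayesian fitting of sequencing counts. Digestion with trypsin and chymotrypsin was carried out on designed mini-proteins under 80 residues without cysteine in a PA-tagged cDNA display construct. Only designs with AlphaFold2 dimer inter-PAE above 15 were kept.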

[2] = folding stability dG unfold (combined trypsin and chymotrypsin); higher = more stable
Outline: as §1

[3] = folding stability dG unfold from chymotrypsin proteolysis; higher = more stable
Outline: as §1

| Sequence | folding stability dG unfold [1] [kcal/mol] | folding stability dG unfold [2] [kcal/mol] | folding stability dG unfold [3] [kcal/mol] |
| --- | --- | --- | --- |
| SAGGEKTTLTLTLTLTLPPVTTVTYDPETGELRVETRTTTLTLTITVTADSPEEAERALRELLKKLGLSAGG [r13_35_TrROS_Hall] | 4.4 ± 0.17 | > 6 | 6.41 ± 0.27 |
| SAGGEKTYMVRIDIEYRTPGKPREIDLMVPIKSPEQAREQLDKIADFLAKEHPDNWRIKVEIYPMEDSAGGS [r16_475_TrROS] | 1.28 ± 0.18 | 2.16 ± 0.29 | 2.49 ± 0.068 |
| SAGGELIEKAIEEALENGEEVEIEVVLRDENGELYRIRIRVRRERLPDGEVKTEIEIEIERFPLPEESAGGS [r16_323_TrROS_Hall] | 4.28 ± 0.2 | 4.6 ± 0.12 | 4.66 ± 0.11 |
| SAGGELVLLSESESVFTSPDGSRTVVRTLLTERPGDLLVEITTTTTIEPESGAVTTTTTTRVLPRRESAGGS [r8_264_JUSTAS] | 2.33 ± 0.043 | 2.8 ± 0.038 | 3.021 ± 0.013 |
| SAGGEMTAEERARRLAERLAEELERRTGRKVEVVSVEVEYDPETDEVTVRIEIRLEDGSTLTIELRLSAGGS [r8_372_TrROS_Hall] | 4.86 ± 0.26 | 4.33 ± 0.27 | 3.41 ± 0.11 |
| SAGGESTPEIEPVATLELPTPDGRPITVEVYRLKDGTVRVVVRNPNPPETITLTIPAKEGETIPIFLSAGGS [r16_566_TrMRF] | 1.9 ± 0.04 | 2.11 ± 0.067 | 2.2 ± 0.045 |
| SAGGETKTITIKVDGKLVTITVKKNKNGEELVTVKVYENGKLVEEVTMSKDELEELAKKLGLSVEELKSAGG [r13_108_TrROS_Hall] | 3.27 ± 0.091 | 3.62 ± 0.1 | 3.81 ± 0.051 |
| SAGGETVEIEVEMSPEEVREAIKKAAEALDAEVVEVKYDKETKKVTITVKKGATEEELRKALEEALKSAGGS [r8_338_TrROS_Hall] | 2.47 ± 0.12 | 2.19 ± 0.095 | 1.78 ± 0.095 |
| SAGGETVTITIKVKGKEITVTFNKDTGKVTITDKDTGKTVTITLPAGEEPTLEELLEALKKLGFEIEPSAGG [r13_687_TrROS_Hall] | 4.11 ± 0.18 | 4.32 ± 0.099 | 4.18 ± 0.095 |
| SAGGEVIELKIKFKTPEQREKLKEIAKKLNAEVVEEKDGEVIIRFKTPEQAERALKEAEKLGAEVELSAGGS [r16_88_TrROS_Hall] | 4.29 ± 0.26 | 4.48 ± 0.17 | 4.47 ± 0.097 |
| SAGGEVKIEVVEKDGELYIVVTVRAPSVEELKKALEELGLEVEVVKIEEVKGEDGETYVVVVVKIKPSAGGS [r16_699_TrROS_Hall] | 2.41 ± 0.086 | 3.24 ± 0.07 | 3.68 ± 0.065 |
| SAGGEVKPGEEVEVEVLVLVRGEDGELYLVRVKMRFRVKEDGTVEMEVEVEVVRVPLSEEELKALLEASAGG [r13_544_TrROS_Hall] | 4.43 ± 0.14 | > 6 | 5.99 ± 0.26 |
| SAGGEVKTLEVTLEVNGKKVRVRVELTKDGTLKVTVTFEDGTKVELEIKLPKVKVKEVKFYSLEELKSAGGS [r16_48_TrROS_Hall] | 2.22 ± 0.071 | 2.06 ± 0.1 | 1.78 ± 0.05 |
| SAGGEVKVEIEVELNEDGTLRVRARVEVRVDGELVTVEVEIEVRLEPAPPPAPPPVLVVDPETGEILSAGGS [r8_269_TrROS_Hall] | 3.29 ± 0.2 | 2.7 ± 0.21 | 1.94 ± 0.11 |
